Experiment [1] deals with Recombinant (His)6-tagged TfR1 ectodomain (human) (UniProt P02786). Nature of the experiment: SPR (Biacore 2000), K'd, TfR-(His)6 captured at high density (1650 RU) on anti-(His)6 chip.
The target of experiment [2] is transferrin receptor (TfR, CD71) on cells (human) (UniProt P02786). Nature of the experiment: cell-based or functional assay.
In experiment [3] the target is Recombinant (His)6-tagged TfR1 ectodomain (human) (UniProt P02786). Kind of experiment: SPR (Biacore 2000), K'd, TfR-(His)6 captured at low density (120 RU) on anti-(His)6 chip.

Sequence of Recombinant (His)6-tagged TfR1 ectodomain (human) (P02786 89-760 limits assumed, form in doubt): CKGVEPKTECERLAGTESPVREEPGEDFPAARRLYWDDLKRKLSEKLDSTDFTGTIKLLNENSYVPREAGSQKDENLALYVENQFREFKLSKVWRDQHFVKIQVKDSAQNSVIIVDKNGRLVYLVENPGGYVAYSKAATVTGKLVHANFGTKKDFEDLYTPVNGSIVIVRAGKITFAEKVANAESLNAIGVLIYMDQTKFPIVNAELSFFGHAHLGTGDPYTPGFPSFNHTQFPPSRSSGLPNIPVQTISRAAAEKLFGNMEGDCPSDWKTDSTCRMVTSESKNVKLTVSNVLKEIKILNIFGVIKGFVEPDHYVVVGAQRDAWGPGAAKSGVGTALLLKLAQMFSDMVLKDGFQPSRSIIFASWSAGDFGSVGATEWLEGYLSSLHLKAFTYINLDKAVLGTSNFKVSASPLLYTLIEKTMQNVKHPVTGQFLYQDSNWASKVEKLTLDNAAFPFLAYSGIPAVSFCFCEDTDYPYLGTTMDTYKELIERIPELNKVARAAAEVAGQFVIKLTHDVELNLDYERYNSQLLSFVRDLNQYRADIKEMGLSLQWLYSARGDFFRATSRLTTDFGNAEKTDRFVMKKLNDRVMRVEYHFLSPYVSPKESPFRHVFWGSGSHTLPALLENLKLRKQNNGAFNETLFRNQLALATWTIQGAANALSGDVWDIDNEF
Sequence of transferrin receptor (TfR, CD71) on cells (human) (P02786 whole entry, the tested form may be a part): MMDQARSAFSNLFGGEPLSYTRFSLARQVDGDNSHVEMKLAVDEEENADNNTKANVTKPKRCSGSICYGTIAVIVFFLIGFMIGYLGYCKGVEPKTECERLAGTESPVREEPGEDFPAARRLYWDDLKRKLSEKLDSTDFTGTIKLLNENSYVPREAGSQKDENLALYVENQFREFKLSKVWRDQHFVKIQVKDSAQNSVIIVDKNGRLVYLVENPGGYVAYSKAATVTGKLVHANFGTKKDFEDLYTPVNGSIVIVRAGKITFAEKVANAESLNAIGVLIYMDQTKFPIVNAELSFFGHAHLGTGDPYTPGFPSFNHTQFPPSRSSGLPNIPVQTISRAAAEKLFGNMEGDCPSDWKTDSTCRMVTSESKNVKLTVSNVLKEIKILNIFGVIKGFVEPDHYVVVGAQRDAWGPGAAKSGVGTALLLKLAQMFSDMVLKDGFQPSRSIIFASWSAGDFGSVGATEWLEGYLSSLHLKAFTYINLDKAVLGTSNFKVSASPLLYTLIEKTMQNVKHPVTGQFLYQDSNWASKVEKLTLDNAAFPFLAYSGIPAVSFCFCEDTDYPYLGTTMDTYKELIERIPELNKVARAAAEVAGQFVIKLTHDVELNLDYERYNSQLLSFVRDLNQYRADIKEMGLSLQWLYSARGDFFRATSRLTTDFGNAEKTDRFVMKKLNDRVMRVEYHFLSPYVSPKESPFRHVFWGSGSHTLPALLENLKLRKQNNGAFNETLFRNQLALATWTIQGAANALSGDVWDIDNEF

In the case of “anti-human TfR (CD71) monoclonal antibody A24”, in experiment [1], the Kd was 1.02 nM. In experiment [2], this substance gave a down-regulation of TfR expression in ex vivo cell cultures from chronic and acute forms of ATL of over 75%; a down-regulation of TfR expression on HTLV-1 infected cells from acute ATL donors in IL-15 or IL-2/IL-15 conditioned medium of over 65%. For the same substance, the Kd in experiment [3] stood at 2.69 nM.
